In US20100016547A1, “Glycosilated Peptide and Medicine Comprising It as an Effective Ingredient” (priority 2005, published 2010) one finds EC50 (cAMP assay) and IC50 data, which are given here for one substance.

In assay [1] the target is GLP-1 receptor.
Assay [2] concerns the target GLP-1 receptor. The source holds these as a separate data set.

Consider EX (peptide), for which the EC50 (cAMP assay) in assay [1] worked out at 0.55 nM. This substance gave an IC50 in assay [2] of 0.1 nM.

Broadly, the IC50 is the concentration that gives 50% inhibition.
